Sequences and labels used below:
T1: β-casein, P02666
T1 chain: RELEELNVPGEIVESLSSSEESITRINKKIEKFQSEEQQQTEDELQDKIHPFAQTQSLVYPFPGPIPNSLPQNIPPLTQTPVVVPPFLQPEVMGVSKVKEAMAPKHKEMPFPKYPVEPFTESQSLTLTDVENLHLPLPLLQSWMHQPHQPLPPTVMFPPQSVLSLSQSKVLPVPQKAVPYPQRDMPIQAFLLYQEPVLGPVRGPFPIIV

B1: camel chymosin variant 293 (Y190A+N100Q+N291Q) (protein)
chain: GKVAREPLTSYLDSQYFGKIYIGTPPQEFTVVFDTGSSDLWVPSIYCKSNVCKNHHRFDPRKSSTFRNLGKPLSIHYGTGSMEGFLGYDTVTVSNIVDPQQTVGLSTEQPGEVFTYSEFDGILGLAYPSLASEYSVPVFDNMMDRHLVARDLFSVYMDRNGQGSMLTLGAIDPSYYTGSLHWVPVTLQQAWQFTVDSVTINGVAVACVGGCQAILDTGTSVLFGPSSDILKIQMAIGATENRYGEFDVNCGNLRSMPTVVFEINGRDYPLSPSAYTSKDQGFCTSGFQGDQNSELWILGDVFIREYYSVFDRANNRVGLAKAI
B2: camel chymosin variant 280 (D290L+N100Q+N291Q) (protein)
chain: B1 chain with A190Y, D290L
B3: camel chymosin variant 307 (Y243E+N100Q+N291Q) (protein)
chain: B1 chain with A190Y, Y243E
B4: camel chymosin variant 305 (S226T+N100Q+N291Q) (protein)
chain: B1 chain with A190Y, S226T
B5: camel chymosin variant 275 (R242Q+N100Q+N291Q) (protein)
chain: B1 chain with A190Y, R242Q
B6: camel chymosin variant 304 (S132A+N100Q+N291Q) (protein)
chain: B1 chain with S132A, A190Y
B7: camel chymosin variant 272 (D290E+N100Q+N291Q) (protein)
chain: B1 chain with A190Y, D290E
B8: camel chymosin variant 282 (Q280E+N100Q+N291Q) (protein)
chain: B1 chain with A190Y, Q280E
B9: camel chymosin variant 296 (S273Y+N100Q+N291Q) (protein)
chain: B1 chain with A190Y, S273Y
B10: camel chymosin variant 286 (R242E+N100Q+N291Q) (protein)
chain: B1 chain with A190Y, R242E
B11: camel chymosin variant 276 (G289S+N100Q+N291Q) (protein)
chain: B1 chain with A190Y, G289S
B12: camel chymosin variant 295 (H76Q+N100Q+N291Q) (protein)
chain: B1 chain with H76Q, A190Y
B13: camel chymosin variant 306 (G251D+N100Q+N291Q) (protein)
chain: B1 chain with A190Y, G251D
B14: camel chymosin variant 303 (L130I+N100Q+N291Q) (protein)
chain: B1 chain with L130I, A190Y
B15: camel chymosin variant 299 (L222I+N100Q+N291Q) (protein)
chain: B1 chain with A190Y, L222I
B16: camel chymosin variant 283 (F282E+N100Q+N291Q) (protein)
chain: B1 chain with A190Y, F282E
B17: camel chymosin variant 308 (S273D+N100Q+N291Q) (protein)
chain: B1 chain with A190Y, S273D
B18: camel chymosin variant 270 (V32L+N100Q+N291Q) (protein)
chain: B1 chain with V32L, A190Y
B19: camel chymosin variant 285 (R254S+N100Q+N291Q) (protein)
chain: B1 chain with A190Y, R254S

Numbering of substitutions follows the chain as printed. Numbers in names are those of the source.

This data set deals with T1, β-casein, P02666. The settings on record: scale: % cleavage of non-glycosylated camel chymosin.
B1 returned a β(193-209): cleavage of β-casein at position 192/193 of 28.
On to B2, for which the β(193-209): cleavage of β-casein at position 192/193 stood at 58.
With B3, the β(193-209): cleavage of β-casein at position 192/193 is 62.
The result for B4 reads 44; that for B5, 74.
As to B6, the β(193-209): cleavage of β-casein at position 192/193 was 28.
Protein B7 returned a β(193-209): cleavage of β-casein at position 192/193 of 60.
The protein B8 displayed a β(193-209): cleavage of β-casein at position 192/193 of 85.
In turn, B9 showed a β(193-209): cleavage of β-casein at position 192/193 of 58.
To B10 belongs 89; to B11, 51; to B12, 48.
In turn, B13 had a β(193-209): cleavage of β-casein at position 192/193 of 88.
With B14, the β(193-209): cleavage of β-casein at position 192/193 worked out at 29.
The result for B15 reads 54; that for B16, 79; that for B17, 66.
The result for B18 reads 28; that for B19, 78.
